From patent US20240218342A1, “SITE-SPECIFIC GLYCAN REMODELING OF LYSOSOMAL ENZYMES AND APPLICATIONS THEREOF” (priority 2021, published 2024)

Biological target: Recombinant human IGF-II R (CI-MPR) (Homo sapiens, UniProt P11717)
Assay: SPR binding to immobilized CI-MPR
Conditions: 25° C., three independent experiments
Experimental: Surface Plasmon Resonance (SPR) Measurements. SPR measurements were performed on a Biacore T200 instrument (GE Healthcare). Recombinant human IGF-II R (CI-MPR) was purchased from R&D Systems. Approximately 7000 resonance units (RU) of CI-MPR was immobilized on a CM5 sensor chip in a sodium acetate buffer (25 μg/mL, pH 4.0) at 25° C., using the amine coupling kit provided by the manufacturer. Mannose 6-phosphates containing glycopeptides or glycoproteins were determined at 25° C. under a flow rate of 10 μL/min. HBS-P+ buffer (10 mM HEPES, 150 mM NaCl, 0.05% surfactant P20, pH 7.4) was used as sample buffer and running buffer. Association was measured for 3 min and dissociation for 10 min at the same flow rate (10 μL/min). […] Synthetic glycopeptide and glycoprotein analytes flowed over an immobilized chip with 2-fold serial dilution of the highest concentration of 4 μM (for glycopeptides) or 1 μM (for RNase B) or 250 nM (for rhGAA). Kinetic analyses were performed by global fitting of the binding data to a 1:1 Langmuir binding model using BIAcore T200 evaluation software.

Chain of Recombinant human IGF-II R (CI-MPR) (P11717 41-2491): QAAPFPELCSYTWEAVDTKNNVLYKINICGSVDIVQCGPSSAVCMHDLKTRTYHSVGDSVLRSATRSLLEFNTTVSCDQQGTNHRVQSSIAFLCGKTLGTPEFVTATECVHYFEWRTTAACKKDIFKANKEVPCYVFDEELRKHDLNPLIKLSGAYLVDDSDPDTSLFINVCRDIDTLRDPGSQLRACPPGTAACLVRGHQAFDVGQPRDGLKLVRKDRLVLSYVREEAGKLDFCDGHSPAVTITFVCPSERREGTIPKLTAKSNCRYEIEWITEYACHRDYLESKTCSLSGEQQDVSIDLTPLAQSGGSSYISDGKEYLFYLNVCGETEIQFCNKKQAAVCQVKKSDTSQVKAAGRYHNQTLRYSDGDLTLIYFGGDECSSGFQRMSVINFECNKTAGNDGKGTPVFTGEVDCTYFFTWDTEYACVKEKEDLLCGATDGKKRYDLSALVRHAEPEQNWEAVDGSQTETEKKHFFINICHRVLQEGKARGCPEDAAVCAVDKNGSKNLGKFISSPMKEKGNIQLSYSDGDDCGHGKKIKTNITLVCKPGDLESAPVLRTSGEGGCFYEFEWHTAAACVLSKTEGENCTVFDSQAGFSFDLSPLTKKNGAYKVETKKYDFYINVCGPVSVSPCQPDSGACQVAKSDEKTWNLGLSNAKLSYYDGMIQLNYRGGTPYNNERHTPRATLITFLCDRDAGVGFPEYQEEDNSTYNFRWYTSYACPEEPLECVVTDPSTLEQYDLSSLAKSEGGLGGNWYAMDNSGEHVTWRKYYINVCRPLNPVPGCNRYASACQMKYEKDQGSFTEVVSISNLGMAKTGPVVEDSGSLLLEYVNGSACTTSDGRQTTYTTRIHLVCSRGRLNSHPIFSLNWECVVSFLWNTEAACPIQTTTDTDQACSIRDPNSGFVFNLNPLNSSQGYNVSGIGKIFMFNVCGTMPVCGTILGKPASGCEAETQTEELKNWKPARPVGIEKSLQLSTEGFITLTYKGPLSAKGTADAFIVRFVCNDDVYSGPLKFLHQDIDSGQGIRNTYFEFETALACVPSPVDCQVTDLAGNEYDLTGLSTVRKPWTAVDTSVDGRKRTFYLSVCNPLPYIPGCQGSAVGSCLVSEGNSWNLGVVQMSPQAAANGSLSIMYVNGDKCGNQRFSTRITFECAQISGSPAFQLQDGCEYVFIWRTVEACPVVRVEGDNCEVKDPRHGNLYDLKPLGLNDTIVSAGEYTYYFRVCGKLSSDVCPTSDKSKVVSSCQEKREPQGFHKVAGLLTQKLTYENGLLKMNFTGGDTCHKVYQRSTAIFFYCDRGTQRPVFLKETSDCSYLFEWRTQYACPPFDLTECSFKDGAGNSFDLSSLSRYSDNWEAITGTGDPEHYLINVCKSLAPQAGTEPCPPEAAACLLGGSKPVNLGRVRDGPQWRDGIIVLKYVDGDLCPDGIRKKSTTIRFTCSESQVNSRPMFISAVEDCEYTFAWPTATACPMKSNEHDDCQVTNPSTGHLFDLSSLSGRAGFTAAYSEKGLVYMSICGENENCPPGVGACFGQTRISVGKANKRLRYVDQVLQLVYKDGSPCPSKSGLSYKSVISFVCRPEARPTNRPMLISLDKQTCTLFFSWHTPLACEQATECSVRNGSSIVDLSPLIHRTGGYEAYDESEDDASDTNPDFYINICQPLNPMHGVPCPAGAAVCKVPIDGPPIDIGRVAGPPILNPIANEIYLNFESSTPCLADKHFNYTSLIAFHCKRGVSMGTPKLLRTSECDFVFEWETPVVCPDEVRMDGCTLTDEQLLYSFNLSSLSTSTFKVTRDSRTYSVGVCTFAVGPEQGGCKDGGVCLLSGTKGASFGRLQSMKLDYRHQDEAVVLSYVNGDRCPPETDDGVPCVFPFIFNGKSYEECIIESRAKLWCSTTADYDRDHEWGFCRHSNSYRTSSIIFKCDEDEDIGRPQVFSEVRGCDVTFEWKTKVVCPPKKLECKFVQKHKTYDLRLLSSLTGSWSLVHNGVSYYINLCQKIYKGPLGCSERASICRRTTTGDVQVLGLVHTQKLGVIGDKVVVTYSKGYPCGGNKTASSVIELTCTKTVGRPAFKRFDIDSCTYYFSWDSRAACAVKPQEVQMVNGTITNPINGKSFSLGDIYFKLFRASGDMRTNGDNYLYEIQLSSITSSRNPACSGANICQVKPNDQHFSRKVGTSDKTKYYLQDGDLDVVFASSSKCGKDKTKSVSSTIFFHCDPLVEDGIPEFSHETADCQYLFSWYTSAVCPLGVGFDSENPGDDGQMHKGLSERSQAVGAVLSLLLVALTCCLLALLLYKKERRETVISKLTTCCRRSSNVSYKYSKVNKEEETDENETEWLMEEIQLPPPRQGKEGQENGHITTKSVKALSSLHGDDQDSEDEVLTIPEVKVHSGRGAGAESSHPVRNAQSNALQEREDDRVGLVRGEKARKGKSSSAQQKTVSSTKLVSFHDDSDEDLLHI

B1: Glycoprotein 68: phosphorylated glycoprotein from GlcNAc-RNase B and oxazoline 8 under wild-type Endo-A catalysis (protein)
chain: KETAAAKFERQHMDSSTSAASSSNYCNQMMKSRNLTKDRCKPVNTFVHESLADVQAVCSQKNVACKNGQTNCYQSYSTMSITDCRETGSSKYPNCAYKTTQANKHIIVACEGNPYVPVHFDASV
modifications: Asn-34 carries GlcNAc extended with M6P tetrasaccharide oxazoline 8 (Man6P-α1,2-Man-α1,3-Man-β1,4-GlcNAc)
  Kd: 15.8 nM
